Assay results reported in paper PMC9375587 (2022).

Molecular target: Thrombin (Homo sapiens, UniProt P00734)
Test: solid-phase binding assay

B1: Myeloperoxidase (protein)
chain: not shown
  Kd: 101 nM
